Test results: patent US20240270857A1 (CHIA TAI TIANQING PHARMACEUTICAL GROUP, published 2024)
Where a chain is given by its changes, count along the chain named. One block for each binder: values may come before it.

How the values were obtained:
[1] = target: T1, IL-36R naturally expressed on OVCAR8 cells and on normal human epidermal keratinocytes (NHK cells) (human, UniProt Q9HB29 20-575); assay: cell-based or functional assay
T1 sequence (looked up): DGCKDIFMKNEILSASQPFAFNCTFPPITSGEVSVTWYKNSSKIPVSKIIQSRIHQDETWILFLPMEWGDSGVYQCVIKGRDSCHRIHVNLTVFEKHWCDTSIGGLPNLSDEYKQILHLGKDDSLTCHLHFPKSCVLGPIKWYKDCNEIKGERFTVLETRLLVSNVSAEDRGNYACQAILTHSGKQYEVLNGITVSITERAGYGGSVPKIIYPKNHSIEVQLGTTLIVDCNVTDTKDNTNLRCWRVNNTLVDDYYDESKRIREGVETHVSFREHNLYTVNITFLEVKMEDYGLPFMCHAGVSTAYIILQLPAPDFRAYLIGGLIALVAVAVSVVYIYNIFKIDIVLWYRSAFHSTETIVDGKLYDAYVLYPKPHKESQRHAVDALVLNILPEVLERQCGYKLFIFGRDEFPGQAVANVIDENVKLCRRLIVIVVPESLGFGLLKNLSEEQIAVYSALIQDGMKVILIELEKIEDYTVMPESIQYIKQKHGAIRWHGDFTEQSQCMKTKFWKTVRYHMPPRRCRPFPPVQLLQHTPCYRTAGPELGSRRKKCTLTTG

[2] = target: T2, human IL-36R overexpressed on 293T-hIL36R-NFκB cells (human, UniProt Q9HB29 20-575); assay: FACS on 293T-hIL36R-NFκB cells, ratio of MFI to background MFI
T2 construct: Entry includes the signal peptide; also called IL1RL2; IL-1Rrp2
T2 sequence: T1 sequence (looked up)
Method: (§1) After the cells was washed with PBS, the cells were resuspended with 100 μL of PBS and then the fluorescence signal was detected using a flow cytometer (BD, Accuri C6). […] The ratio was the ratio of mean fluorescence intensity (MFI) of the experimental group/the background MFI, and the resulting data were analyzed using GraphPad Prism.
(§2) Affinity, binding and blocking assays for humanized antibodies hz72C1-1.1, hz72C1-1.2, hz72C1-1.3, hz72C1-2.1, hz72C1-2.2 and hz72C1-2.3 as well as hz84C4-1.1, hz84C4-1.2, hz84C4-1.3, hz84C4-1.4, hz84C4-1.5, hz84C4-2.1, hz84C4-2.2, hz84C4-2.3, hz84C4-2.4 and hz84C4-2.5 were performed according to the methods of Example 4, Example 5. Example 6, Example 7 and Example 8.

[3] = target: T3, cynomolgus IL-36R overexpressed on 293T-CynoIL36R-NFκB cells (cynomolgus monkey); assay: FACS on 293T-CynoIL36R-NFκB cells, ratio of MFI to background MFI
T3 construct: Entry includes the signal peptide; also called monkey IL-36R
T3 chain: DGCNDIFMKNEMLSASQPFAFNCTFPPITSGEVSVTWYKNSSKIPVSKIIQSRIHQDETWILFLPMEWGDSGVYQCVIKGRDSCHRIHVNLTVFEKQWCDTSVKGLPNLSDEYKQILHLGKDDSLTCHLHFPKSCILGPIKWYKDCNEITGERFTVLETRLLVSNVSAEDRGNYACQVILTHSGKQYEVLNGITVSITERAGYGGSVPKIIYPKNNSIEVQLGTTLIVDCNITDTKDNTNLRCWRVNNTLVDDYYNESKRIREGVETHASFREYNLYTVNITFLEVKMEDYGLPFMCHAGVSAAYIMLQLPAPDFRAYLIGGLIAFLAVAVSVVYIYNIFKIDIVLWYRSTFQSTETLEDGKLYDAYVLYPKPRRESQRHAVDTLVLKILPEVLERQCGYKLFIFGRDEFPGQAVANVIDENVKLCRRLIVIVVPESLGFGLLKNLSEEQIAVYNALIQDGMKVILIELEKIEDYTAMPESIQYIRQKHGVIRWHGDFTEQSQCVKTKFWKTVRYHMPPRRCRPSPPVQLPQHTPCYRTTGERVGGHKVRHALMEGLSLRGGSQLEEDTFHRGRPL
Method: as §1, §2

B2: hz72C1-1.2 (antibody, human IgG4 S228P, kappa)
heavy: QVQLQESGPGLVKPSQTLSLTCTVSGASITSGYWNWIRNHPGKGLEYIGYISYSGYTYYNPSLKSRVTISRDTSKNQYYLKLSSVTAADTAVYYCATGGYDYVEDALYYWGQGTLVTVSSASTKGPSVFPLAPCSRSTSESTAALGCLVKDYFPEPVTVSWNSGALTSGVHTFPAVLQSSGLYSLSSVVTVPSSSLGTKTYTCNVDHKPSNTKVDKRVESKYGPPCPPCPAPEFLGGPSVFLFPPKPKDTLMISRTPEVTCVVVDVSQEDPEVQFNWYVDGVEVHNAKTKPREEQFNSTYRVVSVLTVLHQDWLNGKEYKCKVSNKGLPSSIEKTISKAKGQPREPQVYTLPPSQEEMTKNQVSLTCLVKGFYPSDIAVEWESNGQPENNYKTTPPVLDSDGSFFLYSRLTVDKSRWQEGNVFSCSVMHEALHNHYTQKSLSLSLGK
light: DIQMTQSPSSLSASVGDRVTITCRASSNVRYMYWYQQKPGKAPKLWIYLTSNLASGVPSRFSGSGSGTSYTLTISSLQPEDFATYYCQQFTTSPYTFGQGTKLEIKRTVAAPSVFIFPPSDEQLKSGTASVVCLLNNFYPREAKVQWKVDNALQSGNSQESVTEQDSKDSTYSLSSTLTLSKADYEKHKVYACEVTHQGLSSPVTKSFNRGEC
notes: Humanized, human IgG4 / kappa
EC50 [3]: ~4.94 nM

B3: hz72C1-1.3 (antibody, human IgG4 S228P, kappa)
heavy: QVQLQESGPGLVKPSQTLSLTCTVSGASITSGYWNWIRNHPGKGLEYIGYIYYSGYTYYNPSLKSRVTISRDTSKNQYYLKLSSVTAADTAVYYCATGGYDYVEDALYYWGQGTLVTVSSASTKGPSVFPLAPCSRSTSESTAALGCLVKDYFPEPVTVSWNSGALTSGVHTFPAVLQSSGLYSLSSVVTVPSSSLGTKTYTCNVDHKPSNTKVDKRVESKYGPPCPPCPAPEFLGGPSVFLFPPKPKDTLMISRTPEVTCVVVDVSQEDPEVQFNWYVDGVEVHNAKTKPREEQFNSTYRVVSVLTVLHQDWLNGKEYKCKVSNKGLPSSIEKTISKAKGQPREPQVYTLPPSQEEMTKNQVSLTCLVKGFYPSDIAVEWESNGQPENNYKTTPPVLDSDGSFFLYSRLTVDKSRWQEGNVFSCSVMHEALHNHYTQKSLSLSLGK
light: B2 light
notes: Humanized, human IgG4 / kappa
EC50 [3]: 5.76 nM

B5: hz72C1-2.2 (antibody, human IgG4 S228P, kappa)
heavy: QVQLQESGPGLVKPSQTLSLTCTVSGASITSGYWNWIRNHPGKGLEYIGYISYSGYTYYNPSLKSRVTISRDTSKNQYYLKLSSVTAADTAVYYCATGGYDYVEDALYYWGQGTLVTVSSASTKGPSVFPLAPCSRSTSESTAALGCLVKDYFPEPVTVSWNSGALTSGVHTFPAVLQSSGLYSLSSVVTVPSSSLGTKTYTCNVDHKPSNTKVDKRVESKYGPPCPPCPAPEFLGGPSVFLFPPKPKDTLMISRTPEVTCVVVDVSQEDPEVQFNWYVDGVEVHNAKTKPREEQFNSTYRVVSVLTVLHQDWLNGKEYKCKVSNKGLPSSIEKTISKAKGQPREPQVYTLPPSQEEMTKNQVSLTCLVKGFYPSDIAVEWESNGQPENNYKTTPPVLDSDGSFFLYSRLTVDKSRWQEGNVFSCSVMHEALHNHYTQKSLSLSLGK
light: B2 light with F90Y
notes: Humanized, human IgG4 / kappa
EC50 [3]: 7.25 nM

Further binders by falling EC50 [3], results first:

IC50 (M); hIL36α; IL-8 production [1]: 1.6e-11 M | IC50 (M); hIL36αβγ; IL-8 production [1]: 1.42e-11 M | IC50 (M); hIL36β; IL-8 production [1]: 2.45e-11 M | IC50 (M); hIL36γ; IL-8 production [1]: 8.12e-12 M | Maximum inhibition rate %; hIL36α; IL-8 production [1]: 99.6% | Maximum inhibition rate %; hIL36αβγ; IL-8 production [1]: 99.9% | Maximum inhibition rate %; hIL36β; IL-8 production [1]: 99.1% | Maximum inhibition rate %; hIL36γ; IL-8 production [1]: 100% | EC50 [2]: 9.82 nM | EC50 [3]: 5.64 nM
B1: BI655130 (antibody, human IgG1, kappa, L234A L235A)
heavy: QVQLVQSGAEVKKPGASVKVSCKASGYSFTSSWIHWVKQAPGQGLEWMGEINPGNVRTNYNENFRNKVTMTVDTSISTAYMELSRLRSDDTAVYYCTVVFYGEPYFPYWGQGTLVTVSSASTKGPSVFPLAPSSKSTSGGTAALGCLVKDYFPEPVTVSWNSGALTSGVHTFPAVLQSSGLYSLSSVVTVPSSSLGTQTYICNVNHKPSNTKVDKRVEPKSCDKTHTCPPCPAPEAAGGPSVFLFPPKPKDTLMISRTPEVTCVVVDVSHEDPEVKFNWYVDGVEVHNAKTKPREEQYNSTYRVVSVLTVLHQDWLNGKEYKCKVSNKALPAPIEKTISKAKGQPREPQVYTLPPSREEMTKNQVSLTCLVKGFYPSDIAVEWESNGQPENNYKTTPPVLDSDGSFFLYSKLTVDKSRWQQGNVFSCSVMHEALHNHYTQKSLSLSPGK
light: QIVLTQSPGTLSLSPGERATMTCTASSSVSSSYFHWYQQKPGQAPRLWIYRTSRLASGVPDRFSGSGSGTDFTLTISRLEPEDAATYYCHQFHRSPLTFGAGTKLEIKRTVAAPSVFIFPPSDEQLKSGTASVVCLLNNFYPREAKVQWKVDNALQSGNSQESVTEQDSKDSTYSLSSTLTLSKADYEKHKVYACEVTHQGLSSPVTKSFNRGEC
notes: also called Spesolimab

EC50 [3]: 5.58 nM
B7: hz72C1-2.1 (antibody, human IgG4 S228P, kappa)
heavy: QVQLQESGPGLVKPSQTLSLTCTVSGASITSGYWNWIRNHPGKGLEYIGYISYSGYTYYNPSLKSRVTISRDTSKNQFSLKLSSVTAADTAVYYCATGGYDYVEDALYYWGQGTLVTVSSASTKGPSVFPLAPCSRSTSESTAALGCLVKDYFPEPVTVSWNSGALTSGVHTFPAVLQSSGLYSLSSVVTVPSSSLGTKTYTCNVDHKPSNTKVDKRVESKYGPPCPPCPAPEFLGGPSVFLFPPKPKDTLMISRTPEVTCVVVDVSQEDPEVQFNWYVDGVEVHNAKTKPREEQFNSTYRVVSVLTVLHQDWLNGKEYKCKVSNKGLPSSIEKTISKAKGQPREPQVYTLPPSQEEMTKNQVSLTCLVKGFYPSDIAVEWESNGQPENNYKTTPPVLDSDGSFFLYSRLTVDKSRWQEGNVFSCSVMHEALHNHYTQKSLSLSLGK
light: B2 light with F90Y
notes: Humanized, human IgG4 / kappa

EC50 [3]: 5.21 nM
B4: hz72C1-1.1 (antibody, human IgG4 S228P, kappa)
heavy: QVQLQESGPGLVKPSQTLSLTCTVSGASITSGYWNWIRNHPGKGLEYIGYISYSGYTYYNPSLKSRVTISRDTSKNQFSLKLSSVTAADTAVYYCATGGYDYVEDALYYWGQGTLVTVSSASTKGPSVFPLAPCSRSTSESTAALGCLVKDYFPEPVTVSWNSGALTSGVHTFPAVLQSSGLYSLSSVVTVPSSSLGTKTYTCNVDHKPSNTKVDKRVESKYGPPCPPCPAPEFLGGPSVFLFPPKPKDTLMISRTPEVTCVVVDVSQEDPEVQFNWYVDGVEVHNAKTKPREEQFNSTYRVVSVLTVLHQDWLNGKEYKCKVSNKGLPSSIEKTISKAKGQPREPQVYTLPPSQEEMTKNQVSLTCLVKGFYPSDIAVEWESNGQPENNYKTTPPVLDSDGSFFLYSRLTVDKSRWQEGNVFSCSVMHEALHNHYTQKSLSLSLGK
light: B2 light
notes: Humanized, human IgG4 / kappa; also called humanized 72C1 antibody 1.1

EC50 [3]: 4.84 nM
B6: hz72C1-2.3 (antibody, human IgG4 S228P, kappa)
heavy: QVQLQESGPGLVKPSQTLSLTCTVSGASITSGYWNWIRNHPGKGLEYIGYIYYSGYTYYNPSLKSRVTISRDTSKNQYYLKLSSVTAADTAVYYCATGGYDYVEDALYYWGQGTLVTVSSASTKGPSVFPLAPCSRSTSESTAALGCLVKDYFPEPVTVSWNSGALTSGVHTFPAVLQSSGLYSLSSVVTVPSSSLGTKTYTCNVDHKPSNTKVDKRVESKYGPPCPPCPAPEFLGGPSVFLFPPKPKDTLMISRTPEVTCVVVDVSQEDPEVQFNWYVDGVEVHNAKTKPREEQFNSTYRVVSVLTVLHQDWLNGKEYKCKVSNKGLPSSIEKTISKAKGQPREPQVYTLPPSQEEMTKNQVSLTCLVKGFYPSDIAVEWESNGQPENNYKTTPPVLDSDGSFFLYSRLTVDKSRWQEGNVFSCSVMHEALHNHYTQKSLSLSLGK
light: B2 light with F90Y
notes: Humanized, human IgG4 / kappa
